Positions count from the first letter of the chain named. Each block holds one binder with its values, some of them ahead of it.
How the values were obtained:
human PD-L1 [1] = biological target: T1, human PD-L1 (human, UniProt Q9NZQ7 19-238, limits assumed); assay: flow cytometry on RKO cells (PD-L1 on the cell surface), PE-labelled secondary antibody, MFI
T1 construct: also called hPD-L1
Experimental: (§1) Glycosylation differences in cancer cell lines of different tissue origin may affect the binding affinity between PD-L1 antibody and PD-L1. In this study, five cell lines were selected, namely BT20(Breast), mb-231 (Breast), A375(Melanoma), HCC827(Lung), and RKO(Colon). Cells were re-suspended with FACS buffer (1%BSA in PBS), and 50 µl cell suspension per well was added to the 96-well U-bottom plate (Corning, catalog#3795). The purified antibody to be tested was diluted in gradient, then 50 µl was added to each well and incubated at 4° C. for 1 hour. After washing by FACS buffer for three times, the cells were incubated with PE-labeled fluorescent secondary antibody and incubated at 4° C. for half an hour. Cells were washed three times with FACS buffer and resuspended to 200 uL/ well. The fluorescence signal was detected using Canto II flow cytometry (BD).

human PD-L1 [2] = biological target: T1, human PD-L1; assay: flow cytometry on MDA-MB-231 cells (PD-L1 on the cell surface), PE-labelled secondary antibody, MFI
Experimental: as §1

[3] = biological target: T2, human PD-L1 recombinant protein, PD-L1-his (human, UniProt Q9NZQ7 19-238); assay: Gator BLI; antibody on HFC sensor, PD-L1-his in solution; 1:1 fit
T2 construct: also called PD-L1 with a his-tag; not shown: his-tag
Experimental: PD-L1 antibodies were coupled to the surface of the HFC sensor (Probe Life), and human PD-L1 recombinant protein as the mobile phase was 2 times gradient diluted. The association and dissociation between PD-L1 protein and the antibodies on the surface of the sensor were measured. Specifically, the HFC sensor was prewetted in SD buffer (PBS containing 0.02% Tween-20 and 0.2% BSA) for 5-10 minutes, and then incubated in SD buffer containing antibodies for 1-3 minutes, allowing antibodies to be coupled to the sensor surface. The antibody-coupled HFC sensor was incubated in the SD buffer solution for 1 minute, and then incubated in the buffer solution containing different concentrations of PD-L1-his for 1-5 minutes to measure the association of PD-L1 protein to captured antibody. Finally, the sensor combining the antigen and antibody was incubated in SD buffer for 2-10 minutes to measure PD-L1 protein’s dissociation from sensor. The measured data were fitted using a 1:1 model, and the association rate (Kon) and the dissociation rate (Koff) were calculated. The equilibrium dissociation constant (kD) was calculated by the ratio Koff/Kon.

human PD-L1 [4] = biological target: T1, human PD-L1; assay: flow cytometry on HCC827 cells (PD-L1 on the cell surface), PE-labelled secondary antibody, MFI
Experimental: as §1

human PD-L1 [5] = biological target: T1, human PD-L1; assay: Octet-96 BLI; antigen not named, taken as human PD-L1
human PD-L1 [6] = biological target: T1, human PD-L1; assay: flow cytometry on BT20 cells (PD-L1 on the cell surface), PE-labelled secondary antibody, MFI
Experimental: as §1

T1 sequence (Q9NZQ7 19-238 limits assumed): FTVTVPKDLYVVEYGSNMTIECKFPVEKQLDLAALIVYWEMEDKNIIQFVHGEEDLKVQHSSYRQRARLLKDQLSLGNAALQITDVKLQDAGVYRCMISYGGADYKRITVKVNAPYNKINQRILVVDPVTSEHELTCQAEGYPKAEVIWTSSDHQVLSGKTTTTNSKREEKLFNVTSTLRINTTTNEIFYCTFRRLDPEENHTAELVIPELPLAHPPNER
T2 sequence (Q9NZQ7 19-238 limits assumed): as above

B2: BhVH2/BhVL1 (antibody, V domains shown)
VH: QGQLVQSGAEVKKPGASVKVSCKTSGFTFSSSYISWVRQAPGQGLEWMGWIYAGTGGTSYNQKFTGRVTMTVDTSTSTAYMELRSLRSDDTAVYYCARHEGKYWYFDVWGQGTTVTVSS
VL: DIQMTQSPSSLSASVGDRVTITCSASSSVSYVHWYQQKPGKAPKPWIYDTSNLASGFPSRFSGSGSGTDYTLTISSLQPEDFATYYCHQRSSYPWTFGGGTKVEIK
notes: Humanized Clone B; VH and VL cloned into vectors carrying constant regions (CH1-FC/CL), expressed in 293F cells; also called humanized Clone B, Bh VH2 + Bh VL1
- Kd (human PD-L1 [5]): 1.13 nM

B3: BhVH2/BhVL8 (antibody, V domains shown)
VH: B2 VH
VL: EIVMTQSPATLSVSPGERATLSCSASSSVSYVHWYQQKPGQAPRPWIYDTSNLASGFPARFSGSGSGTEYTLTISSLQSEDAAVYYCHQRSSYPWTFGGGTKVEIK
notes: Humanized Clone B; constant regions (CH1-FC/CL) from the vector, expressed in 293F cells; also called humanized Clone B, Bh VH2 + Bh VL8
- Kd (human PD-L1 [5]): 1.18 nM

B4: BhVH5/BhVL7 (antibody, V domains shown)
VH: B2 VH with A16S, M70I, R84S, D89E
VL: B3 VL with P45L, W46L, F57I, Y70F, A82F
notes: Humanized Clone B; constant regions (CH1-FC/CL) from the vector, expressed in 293F cells; also called humanized Clone B, Bh VH5 + Bh VL7
- Kd (human PD-L1 [5]): 0.4 nM

B5: BhVH2/BhVL7 (antibody, V domains shown)
VH: B2 VH
VL: B3 VL with P45L, W46L, F57I, Y70F, A82F
notes: Humanized Clone B; constant regions (CH1-FC/CL) from the vector, expressed in 293F cells; also called humanized Clone B, Bh VH2 + Bh VL7
- Kd (human PD-L1 [5]): 0.942 nM

B6: BhVH5/BhVL8 (antibody, V domains shown)
VH: B2 VH with A16S, M70I, R84S, D89E
VL: B3 VL
notes: Humanized Clone B; constant regions (CH1-FC/CL) from the vector, expressed in 293F cells; also called humanized Clone B, Bh VH5 + Bh VL8
- Kd (human PD-L1 [5]): 0.619 nM

B7: BhVH3/BhVL3 (antibody, V domains shown)
VH: B2 VH with G2V
VL: B2 VL with S10T, P45L, W46L, F57V, D69E, Y70F, E80D
notes: Humanized Clone B; constant regions (CH1-FC/CL) from the vector, expressed in 293F cells; also called humanized Clone B, Bh VH3 + Bh VL3
- Kd (human PD-L1 [5]): 1.29 nM

B9: Clone D (antibody, V domains shown)
VH: EVQLQQSGPELVKPGASMKISCKASGYSFTGYTMNWVKQSHGKNLEWIGLIIPYNGGISYNQKFKDKATLTVDKSSSTAYMELLSLTSEDSAVYYCASLITTAPRDSMDYWGQGTSVTVSS
VL: DIQMTQTTSSLSASLGDRVTISCRASQDISNYLNWYQQKPDGSVKLLIYYTSKLHSGVPSRFSGSGSGTDYSLTISNLEQEDIATYFCQQGDALPWTFGGGTKLEIK
notes: Mouse hybridoma clone
- EC50 (read off the curve) (human PD-L1 [1]): ~0.02 µg/mL
- EC50 (read off the curve) (human PD-L1 [2]): ~0.03 µg/mL
- Kd [3]: 3.68 nM
- koff [3]: 0.000826 s⁻¹
- kon [3]: 225000 M⁻¹ s⁻¹
- EC50 (read off the curve) (human PD-L1 [6]): ~0.01 µg/mL
- EC50 (read off the curve) (human PD-L1 [4]): ~0.02 µg/mL

B10: Chimeric D (antibody, V domains shown)
VH: B9 VH
VL: B9 VL
notes: also called chimeric Clone D
- Kd (human PD-L1 [5]): 3.68 nM

B12: DhVH2/DhVL2 (antibody, V domains shown)
VH: QVQLVQSGAEVKKPGASVKVSCKASGYSFTGYTMNWVKQAHGQGLEWMGLIIPYNGGISYNQKFKDRVTMTVDTSISTAYMELSRLRSDDTAVYYCASLITTAPRDSMDYWGQGTLVTVSS
VL: DIQMTQSPSSLSASVGDRVTITCRASQDISNYLNWYQQKPGKAPKLLIYYTSKLHSGVPSRFSGSGSGTDFTLTISSLQPEDIATYYCQQGDALPWTFGGGTKVEIK
notes: Humanized Clone D; constant regions from the vector, 293F cells; also called humanized Clone D, Dh VH2 + Dh VL2
- Kd (human PD-L1 [5]): 11.8 nM

B19: ChVH3/ChVL3 (antibody, V domains shown)
VH: QVQLVQSGAEVKKPGASVKVSCKASGFNIKDTYMHWVRQAPGQGLEWIGRIDPANGNTKYDPKFQGRVTITTDTSANTAYMELSSLRSEDTAVYYCARGLGRWFAYWGQGTTVTVSS
VL: DIQMTQSPSSLSASVGDRVTITCQASQDVSNAVAWYQQKPGKAPKLLIYSASNLYTGVPSRFSGSGSGTDFTFTISSLQPEDIATYYCQQHDSTPLTFGQGTKLELK
notes: Humanized Clone C; constant regions (CH1-FC/CL) from the vector, expressed in 293F cells; also called humanized Clone C, Ch VH3 + Ch VL3
- Kd (human PD-L1 [5]): 0.242 nM

B20: ChVH2/ChVL2 (antibody, V domains shown)
VH: B19 VH with V68A, A76T, M81L
VL: B19 VL with Q24K, L54R
notes: Humanized Clone C; constant regions (CH1-FC/CL) from the vector, expressed in 293F cells; also called humanized Clone C, Ch VH2 + Ch VL2
- Kd (human PD-L1 [5]): 0.201 nM

B21: ChVH5/ChVL1 (antibody, V domains shown)
VH: B19 VH with G44R, D61S, P62Q, T72R, N77S
VL: B19 VL with Q24K, L54R, S60D
notes: Humanized Clone C; constant regions (CH1-FC/CL) from the vector, expressed in 293F cells; also called humanized Clone C, Ch VH5 + Ch VL1
- Kd (human PD-L1 [5]): 1.17 nM

B22: ChVH1/ChVL1 (antibody, V domains shown)
VH: B19 VH with V20L, K23T, R38K, A40R, R67K, V68A, A76T, M81L
VL: B19 VL with Q24K, L54R, S60D
notes: Humanized Clone C; constant regions (CH1-FC/CL) from the vector, expressed in 293F cells; also called humanized Clone C, Ch VH1 + Ch VL1
- Kd (human PD-L1 [5]): 0.255 nM

B23: ChVH2/ChVL3 (antibody, V domains shown)
VH: B19 VH with V68A, A76T, M81L
VL: B19 VL
notes: Humanized Clone C; constant regions (CH1-FC/CL) from the vector, expressed in 293F cells; also called humanized Clone C, Ch VH2 + Ch VL3
- Kd (human PD-L1 [5]): 0.329 nM

B24: ChVH3/ChVL1 (antibody, V domains shown)
VH: B19 VH
VL: B19 VL with Q24K, L54R, S60D
notes: Humanized Clone C; constant regions (CH1-FC/CL) from the vector, expressed in 293F cells; also called humanized Clone C, Ch VH3 + Ch VL1
- Kd (human PD-L1 [5]): 0.16 nM

B25: ChVH4/ChVL3 (antibody, V domains shown)
VH: B19 VH with N77S, M81L
VL: B19 VL
notes: Humanized Clone C; constant regions (CH1-FC/CL) from the vector, expressed in 293F cells; also called humanized Clone C, Ch VH4 + Ch VL3
- Kd (human PD-L1 [5]): 0.177 nM

Second part, the binder after the results:

- EC50 (read off the curve) (human PD-L1 [1]): ~0.04 µg/mL
- EC50 (read off the curve) (human PD-L1 [2]): ~0.06 µg/mL
- Kd [3]: 5.94 nM
- koff [3]: 0.0006 s⁻¹
- kon [3]: 101000 M⁻¹ s⁻¹
- EC50 (read off the curve) (human PD-L1 [4]): ~0.05 µg/mL
B1: Clone B (antibody, V domains shown)
VH: QGQMQQSGAELVKPGASVKLSCKTSGFTFSSSYISWLKQKPGQSLEWIAWIYAGTGGTSYNQKFTGKAQLTVDTPSSTAYMQFSSLTTEDSAIYYCARHEGKYWYFDVWGAGTTVTVSS
VL: QILLTQSPAIMSASPGEKVTMTCSASSSVSYVHWYQQKPGSSPKPWIYDTSNLASGFPARFSGSGSGTSYSLIISSMEAEDAATYYCHQRSSYPWTFGGGTKLEIK
notes: Mouse hybridoma clone

- EC50 (read off the curve) (human PD-L1 [1]): ~0.02 µg/mL
- EC50 (read off the curve) (human PD-L1 [2]): ~0.03 µg/mL
- Kd [3]: 4.32 nM
- koff [3]: 0.00101 s⁻¹
- kon [3]: 234000 M⁻¹ s⁻¹
- EC50 (read off the curve) (human PD-L1 [6]): ~0.02 µg/mL
- EC50 (read off the curve) (human PD-L1 [4]): ~0.03 µg/mL
B8: Clone C (antibody, V domains shown)
VH: EVQLQQSGADLVKPGASVKLSCTASGFNIKDTYMHWVKQRPEQGLEWIGRIDPANGNTKYDPKFQGKATITTDTSSNTAYLQLSSLTSEDTAVYYCARGLGRWFAYWGQGTLVTVSA
VL: DIVMTQSHKFMSTSVGDRVSITCKASQDVSNAVAWYQQKPGQSPELLIYSASNRYTGVPDRFTGSGSGTDFTFTISSVQAEDLAVYYCQQHDSTPLTFGAGTKLELK
notes: Mouse hybridoma clone

- EC50 (read off the curve) (human PD-L1 [1]): ~0.03 µg/mL
- EC50 (read off the curve) (human PD-L1 [2]): ~0.03 µg/mL
- Kd [3]: 3.52 nM
- koff [3]: 0.000582 s⁻¹
- kon [3]: 165000 M⁻¹ s⁻¹
- EC50 (read off the curve) (human PD-L1 [6]): ~0.007 µg/mL
- EC50 (read off the curve) (human PD-L1 [4]): ~0.02 µg/mL
B11: Clone N (antibody, V domains shown)
VH: B9 VH with Y54H, I58T, S77R, I100M
VL: B9 VL with S43T, K53R, E79D, D92A, A93T
notes: Mouse hybridoma clone

- Kd (human PD-L1 [5]): 1.67 nM
B13: DhVH3/DhVL2 (antibody, V domains shown)
VH: B12 VH with K38R, H41P
VL: B12 VL
notes: Humanized Clone D; constant regions from the vector, 293F cells; also called humanized Clone D, Dh VH3 + Dh VL2

- Kd (human PD-L1 [5]): 1.27 nM
B14: DhVH2/DhVL1 (antibody, V domains shown)
VH: B12 VH
VL: B12 VL with P8T, K42G, F71Y, P80Q
notes: Humanized Clone D; constant regions from the vector, 293F cells; also called humanized Clone D, Dh VH2 + Dh VL1

- Kd (human PD-L1 [5]): 10.3 nM
B15: DhVH-CDR graft/ DhVL-CDR graft (antibody, V domains shown)
VH: B12 VH with K38R, H41P, V72R, A79V
VL: B12 VL with L73F
notes: also called CDR-grafted humanized Clone D

- Kd (human PD-L1 [5]): 9.09 nM
B16: DhVH3/DhVL1 (antibody, V domains shown)
VH: B12 VH with K38R, H41P
VL: B12 VL with P8T, K42G, F71Y, P80Q
notes: Humanized Clone D; constant regions from the vector, 293F cells; also called humanized Clone D, Dh VH3 + Dh VL1

- Kd (human PD-L1 [5]): 12.4 nM
B17: DhVH1/DhVL2 (antibody, V domains shown)
VH: B12 VH with A40S, M48I, V68A, M70L, I76S
VL: B12 VL
notes: Humanized Clone D; constant regions from the vector, 293F cells; also called humanized Clone D, Dh VH1 + Dh VL2

- Kd (human PD-L1 [5]): 11.1 nM
B18: DhVH1/DhVL1 (antibody, V domains shown)
VH: B12 VH with A40S, M48I, V68A, M70L, I76S
VL: B12 VL with P8T, K42G, F71Y, P80Q
notes: Humanized Clone D; constant regions (CH1-FC/CL) from the vector, 293F cells; also called humanized Clone D, Dh VH1 + Dh VL1
